These results are taken from the nanobody polyreactivity screen of Harvey et al. (2022).

This data set in a line: yeast display, Sf9 membrane polyspecificity reagent, FACS + sequencing; frameworks hold sequencing errors. The essentials:
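Polyreactivity labels are assigned by the sorting gate from which each nanobody was recovered. The gates were low and high (top ~1%), set on anti-HA fluorescence for expression and streptavidin fluorescence for reagent binding. Before sorting, galactose-induced (36–48 hours) yeast display cells were stained for 1 hour at 4 °C with 10% biotinylated, detergent-solubilized Sf9 membrane reagent.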
As for “QVQLVESGGGLVQAGGSLRLSCAASGFTFKRNAMGWYRQAPGKERELVAAISWSGSRTYADSVKGRFTISRDYAKNTVYVQMNSLKPEDTAVYYCAASPGRRRRPYASLIRYDYWGQGTQVTVSS”, the “polyreactivity (PSR sort gate)” value was “high polyreactivity”.

As to “QVQLVESGGGLVQAGGSLRLICAASGSIFPFNAMGWYRQAPGKERELVAAISSSGGSTSYADSVKGRFTISRDNAKNTVYLQMNSLKPEDTAVYYCNVRYRSAGSRYGYWGQGTQVTVSS”, the “polyreactivity (PSR sort gate)” value is “low polyreactivity”.

Take “QVQLVESGGGLVQAGGSLRLSCAASGRIFRYYAMGWYRQAPGKERELVAAITSDGRTYYADSVKGRFTISRDNAKNTVYLQMNSLKPEDTAVYYCAADHHSYRYGGYYYWGQGTQVTVSS”: the “polyreactivity (PSR sort gate)” value was “low polyreactivity”.

For the sequence “QVQLVESGGGLVQAGGSLRLSCAASGSIFNTYAMGWYRQAPGKEREFVASISRSGGSTRYADSVKGRFTISRDNAKNTVYLQMNSLKPEDTAVYYCAARVPRGHVTYDYWGQGTQVTVSS”, the “polyreactivity (PSR sort gate)” value is reported as “high polyreactivity”.

Regarding “QVQLVESGGGLVQAGGSLRLSCAASGRTFSWNTMGWYRQAPGKEMELVATITWSGTSTYYADSVKGRFTISRDNAKNTDYLQMNSLKPEDTAVYYCAKRRLFPYTISRYDYWGQGTQVTVSS”, the “polyreactivity (PSR sort gate)” value is listed as “high polyreactivity”.

As for “QVQLVESGGGLVQAGGSLRLSCASSGSIFSKYAMGWYRQAPGKERELVAAITLNGGSTYYADSVKGRFTISRDNAKNTVYLQMNSLKPEDTAVYYCAKSDRPWWGYYYSWGQGSQVTVSS”, the “polyreactivity (PSR sort gate)” value is recorded as “low polyreactivity”.

Take “QVQLVESGGGLVQAGGSLRLSCADSGSIGLYAMGWYRQAPGKETELVAVISRNGGSTYYADSVKGRFTISRDNAKNTVYLQMNSLKPEDTAVYYCAKRRLERGTGDYWGQGTQVTVSS”: the “polyreactivity (PSR sort gate)” value was “high polyreactivity”.

As to “QVQLVESGGGLVPAGGSLRLSCASSGRTFYPYAMGRYRQAPGKERELVAAITTSGGRTYYADSVKGRFTISRDNAKNTVYLQMNSLKPEDTGVYYCAKVYREGEGKFDYWGQGTQVTVSS”, the “polyreactivity (PSR sort gate)” value is listed as “high polyreactivity”.

For the sequence “QVQLVESGGGLVQAGGSLRLSCAASGSTIGAYAMGWYRQAPGKERELVAAITFSVGSTYYADSVKGRFTISRDNAKNTVYLQMNSLKPEDTAVYYCAADYYIYRSKYYQSTIQGYYYWGQGTQVTVSS”, the “polyreactivity (PSR sort gate)” value is listed as “high polyreactivity”.

For the sequence “QVQLVESGGGLVQAGGSLRLSCAASGSTFGSYAMGWYRQAPGKERELVAAISRGGGSTYYADSVKGRFTISRDNAKNTVYLQMKSLKPEDTAVYYCAASFSRYGLVLYSIEDYWGQGTQVTVSS”, the “polyreactivity (PSR sort gate)” value is “high polyreactivity”.

Take “QVQLVESGGGLVQAGGSLRLSCAASGITFNAYAMGWYRQAPGKERELVAAITSSGSSTYYADSVKGRFTISRDYAKNTVYLQMNSLKPDDTAVYYCAATRGTKFYWGQGTQVTVSS”: the “polyreactivity (PSR sort gate)” value is recorded as “high polyreactivity”.

Regarding “KVQLVESGRALVQAGGSLRLSCAASGSTFGNNAMGWNRPAPGKERELVATIDDTTVSTNYADSVKGRFTISRDNAKNTVYLQMTCLKPEDTAVYYCSADDVDGSPYDYWGQGTQGTVSS”, the “polyreactivity (PSR sort gate)” value is “low polyreactivity”.

For the sequence “QVQLVESGGGLVQAGGSLRLSCAASGFTFIYYAMGWSRQAPGKERELVAAIRWSGGSTYYADSVKGRFTISRDNAKNTVYLQMNSLNPEDTAVYYCAKGGPHRGTGLNDYWGQGTQVTVSS”, the “polyreactivity (PSR sort gate)” value was “high polyreactivity”.

Consider “QVQLVESGGGLVQAGGSLRLSCAASGLIFKSYAMGWYRQAPGKERELVAAISSGGTTYYADSVKGRFTISRDNAKNTVYLQMNSLKPEDTAVYYCAAYFKQPVEPCEYWGQGTQVTVSS”, for which the “polyreactivity (PSR sort gate)” value was “high polyreactivity”.

Consider “QVHLVESGGGLVQAGGSLRLSCAASGFIFWGYAMGWYRPAPVHERELVAAISSDGDTYYADSVKGRFTISLDNAKNTVYLQMNCRKPEESAVYYCNADLYGGGDNSVISGLNGEYEYWGQGTQVTVSS”, for which the “polyreactivity (PSR sort gate)” value was “low polyreactivity”.

As to “QVQLVESGGGLVQAGGSLRLSCAASGRIFFVYAMGWYRQAPGKERELVAAITSSGGGTYYADSVKGRFTISRDNAKNTVYLQMNSLKPEDTAVYYCATRYPYRPGYEYWGQGTQVTVSS”, the “polyreactivity (PSR sort gate)” value is “low polyreactivity”.

On to “QVQLVESGGGLFQAGGSLRLSCAASGGIFFYYAMGGYRQAPGKERELVAAIRTNGGTTYYADSVKGRFTISRDNAKNTVYLQRNRLKTEDTAVYYCPAQPGGYYVRGEFDYWGQGTQVTLSS”, for which the “polyreactivity (PSR sort gate)” value is “low polyreactivity”.

Consider “QVQLVESGGGLVQAGGSLRLSCAASGHTFAYNAMGWYRQAPGKEREFVAAITWSTDNTYYADSVKGRFTISRDNAKNTVYLQMNSLKPEDTAVYYCAKDAAESYRYGYWGQGTQVTVSS”, for which the “polyreactivity (PSR sort gate)” value was “low polyreactivity”.

As for “QVQLVESGGGLVQAGGSIRLSCAASGRIFVRNAMGWYRQAPGKEREMVAAISWSSGGTYYADSVKGRFTISRDNAKNTVYLQMNSLKPEDTAVYYCNADPSRAGDYWGQGTQVTVSS”, the “polyreactivity (PSR sort gate)” value is “low polyreactivity”.

Turning to “QVQLVESGGGLVQAGGSLRLSCAASGRIFTFYAMGWSRQAPGKERELVAVITTGTSTTYADSVKGRFTISRDNAKNTVYLQMNSLKPEDTAVYYCAVDSWSRVQGWLAHNYDYWGQGTQVTVSS”, the “polyreactivity (PSR sort gate)” value is given as “low polyreactivity”.

As to “QDQLVESGGGLVQAGGSLRLSSAASGRTFCYNTKGWYRQSPGKERELLAAINYSGGSTYYADSVKGRFTISRDNAKNTVYLQMNSLKPEDTAVYYWNAKPRWYVPYDYWGQGTQVNVSS”, the “polyreactivity (PSR sort gate)” value is “high polyreactivity”.

As to “QVQLVESGGGLVQAGGSLRLSCAASVSTFWFYAMGWYRQAPGKERELVAVISNSGSTYYADSVKGRFTISRDNAKNTVYLQMNSLKPEDTAVYYCAADVEGWTVESDVYRVGYDYWGQGTQVTVSS”, the “polyreactivity (PSR sort gate)” value was “low polyreactivity”.

In the case of “QVQLVESGGGLVQAGGSLRLSCAASGRIFGHYAMGWYRQAPGKETELVASISWRGGRTYYADSVKGRFTISRDNAKNTVYLQMNSLKPEDTAVYYCAARVNYKPYADYYYWGQGTQVTVSS”, the “polyreactivity (PSR sort gate)” value was “high polyreactivity”.

On to “QVQLVESGGGLVQAGGSLRLRCAASGRTFYKNTMGWYRQAPGKERELVATISQRGGATYYADSVKGRFTISRDNAKNTVYLQMTSLKPEDTAVYYCNARKYTQSIHYDYWGQGTQVTVSS”, for which the “polyreactivity (PSR sort gate)” value is recorded as “high polyreactivity”.

As to “QVQLVQTGRGLVQAGGSLRLICAASGIIFKYYGMGWYRQAPGKERELVAAITDRGGSTYYADSVKGRFTISRDHAKNTVYLQMNSLKPEDTAVYYCSAVPSSGKSGFRGGYWGQVTQVTVSS”, the “polyreactivity (PSR sort gate)” value is given as “high polyreactivity”.

On to “QVQLVESGGGLVQAGGSLRLSCAASGSIFDYYAMGWYRQAPGQERELVAAISVRGGSTYYADSVKGRFTISRDNANNTVYLHKNSLKPEDTAVYYCAADYAYNKYLSVEYWGQGTQVTVSS”, for which the “polyreactivity (PSR sort gate)” value is reported as “low polyreactivity”.

Turning to “QVQLVESGGGLVQAGGSLRLSCAASGFTFAFYTMGWYRQAPGKERELVAGITRSGTNTYYADSVKGRFTISRDNAKNTVYLQMNSLKPEDTAVYYCAAAIRPGMDYWGQGTQVTVSS”, the “polyreactivity (PSR sort gate)” value was “high polyreactivity”.

Turning to “QVHLVESGGGLVQAGGSLRLSCADSGSTFTSYAMGWYRQAPGKERDLVAAINYSGGSTYYADSVKGRFTISRDNAKNTVYLQMNSLKPEDTAVYYCAADGYIRQYVTYYYWGKGTQVTVSS”, the “polyreactivity (PSR sort gate)” value is listed as “low polyreactivity”.

Consider “QVQLVESGGGLVQAGGSLRLSCAASRRTFKSSAMGWYRPEPGKERELVAAISRSGGITYYADSVKGRFTISRDNAKNTVYLQMNSLKPEDTAVYYCAAVGYQYRHRRFYYWGQGTQVTVSS”, for which the “polyreactivity (PSR sort gate)” value is “high polyreactivity”.

Turning to “QVQLVESGGGLGQAGGSLRLSSAASGRTFVFYAMGWYIQAPGKERELVAAITSSGGRTYYADSVKGRFTISRDNAKNTVYLQMNSLKPEDTAVYYCAAPYYPYKYDSWGQGTQVTGSS”, the “polyreactivity (PSR sort gate)” value is listed as “low polyreactivity”.

Regarding “QVQLVESGGGLFQAGGSLRLSCAPSGRIFRYNAMGWYRQAPGKERELVASISGSGGSTYYADSVKGRFTISRDNAKNTVYLQMNSLTPEDTAVYYCAAQWRYQYPESLESYYWGQGTQVTVSS”, the “polyreactivity (PSR sort gate)” value was “high polyreactivity”.

Take “QVQLVESGGGLVQAGGSLRLTCAASGRTFAGNAMGWYRQAPGKERELVAAIRRTGGRTYYADSVKGRFTISRDNAKNSVYLQRNSLKPEDTAVYYCYAVNKPYTREYGYDYWGKGTQVTVSS”: the “polyreactivity (PSR sort gate)” value is “high polyreactivity”.

Turning to “QVQLVESGGGLVQAGGSLRLSCAASGSIFVSYAMGWYRQAPGKEREFVAAITRSGGSTYYADSVKGRFTISRDNAKNTVYLQMNSLKPEDTAVYYCAARSYLGAYRRYYWGQGTQVTVSS”, the “polyreactivity (PSR sort gate)” value is on record as “high polyreactivity”.

As for “QVQLVESGGGLVQAGGSLRLSCAASAFTFGYYAMGWYIQAPGKERELVAAISSGGNTNYADSVKGRFTISRDNAKNTVYLQMNSLKPEDTAVYYCNRRSWRYYKTYSAFNYWGQGSQVTVSS”, the “polyreactivity (PSR sort gate)” value is listed as “high polyreactivity”.

“QVQLVESGGGLVQAGGSLRLSCSASGGTFRYYTMVWYRKAPGKERELVAAITRGGRTYYADSVKGRFTISRDNAKNTVYLQMNSLKPEDTAVYYCAAVRPRSPVSYENDYWGQGTQVTVSS”: the “polyreactivity (PSR sort gate)” value is “high polyreactivity”.

Turning to “QVQLVESGGGLVQAGGSLRLSCAASGFIFASYAMGWYRQAPGKERELVATITRNGGITYYADSVKGRFTISRDNAKNTVYLQMNSLKPEDTAVYYCAKRRSGKSNVSFYPYAYDYWGQGTQVTVSS”, the “polyreactivity (PSR sort gate)” value is “low polyreactivity”.

For “QVQLVESGGGLVQAGGSLRLSCAASGRIIPNNAMGWYRQAPGKERELVAAITRGGTTYADSVKGRFTISRDNAKNTVYLQMNSLKPEDTAVYYCDTAAVKYGYRYYYWGQGTQVTVSS”, the “polyreactivity (PSR sort gate)” value is listed as “high polyreactivity”.

“QVQHVESGGGLVQAGGSLRLSCDASGSTFPYYTMGWYRQAPGKERELVAAITWRGGRTYYADSVKGRFTISRDNAKNTVYLQMNSLKPEDTAVYYCATGYSYRGYSALSGYDYWGQGTQVTVSS”: the “polyreactivity (PSR sort gate)” value is recorded as “high polyreactivity”.

Consider “QVQLVESGGGLVQAGGSLRLSCAASGRIFASYAMGWYRQAPGKERELVAAISLRGGSTYYADSVKGRFTISRDNAKNTVYLQMNSLKPEDTAVYYCAAYHPHGFDYYRYYYWGQGTQVTVSS”, for which the “polyreactivity (PSR sort gate)” value is recorded as “high polyreactivity”.

As for “QVQLVESGGGLVQAGGRLRLSCAASGSIFYYYAMGWYRQAPGTERELVAAISRGGNTYYADSVKGRFTNSRDNAKNTVYLQMNSLKPEDTAVYYCNARPPNKRYKYGYWGQGTQVTVSS”, the “polyreactivity (PSR sort gate)” value is on record as “high polyreactivity”.
